# In patent US12679878B2, “CRF2 receptor agonists and their use in therapy” (SANOFI, priority 2020, dated 2026):
# Starred links: 1 amine or outer side, 2 acyl side, 3 side chain; linkers in the order of their positions; H or OH if unused. Non-standard residues stand in square brackets, D forms with d. Groups on a side chain read outwards from the residue. No end group written: not given here. *: point of attachment. C18 diacid = O=C(O)CCCCCCCCCCCCCCCCC(=O)*; γGlu = O=C(O)[C@H](CCC(=O)[*:2])N[*:1]; AEEA = NCCOCCOCC(=O)O; Aib = CC(C)(N)C(=O)O
# T1: CRF1R receptor (anti-target) (UniProt P34998 24-415, limits assumed)
# T1 sequence (looked up): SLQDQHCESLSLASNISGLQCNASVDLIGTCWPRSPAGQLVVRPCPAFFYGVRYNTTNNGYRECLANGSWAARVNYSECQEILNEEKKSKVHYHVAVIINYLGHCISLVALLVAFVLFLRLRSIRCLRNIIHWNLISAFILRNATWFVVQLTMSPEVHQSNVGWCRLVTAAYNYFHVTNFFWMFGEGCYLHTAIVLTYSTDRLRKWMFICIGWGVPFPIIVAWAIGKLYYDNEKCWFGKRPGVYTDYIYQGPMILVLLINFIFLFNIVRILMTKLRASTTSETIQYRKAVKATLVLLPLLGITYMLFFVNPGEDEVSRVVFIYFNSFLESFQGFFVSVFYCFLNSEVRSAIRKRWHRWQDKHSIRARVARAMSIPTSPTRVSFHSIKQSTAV
# B1: peptide of SEQ ID NO: 119 (peptide)
# peptide: IVLSLDVPIKLK([AEEA-AEEA-γGlu-C18 diacid])QILLKQERQKK[Aib]RQKAEKNKQILAQV-NH2
# modifications: N-terminus assumed
# SMILES: CC[C@H](C)[C@H](N)C(=O)N[C@H](C(=O)N[C@@H](CC(C)C)C(=O)N[C@@H](CO)C(=O)N[C@@H](CC(C)C)C(=O)N[C@@H](CC(=O)O)C(=O)N[C@H](C(=O)N1CCC[C@H]1C(=O)N[C@H](C(=O)N[C@@H](CCCCN)C(=O)N[C@@H](CC(C)C)C(=O)N[C@@H](CCCCNC(=O)COCCOCCNC(=O)COCCOCCNC(=O)CC[C@H](NC(=O)CCCCCCCCCCCCCCCCC(=O)O)C(=O)O)C(=O)N[C@@H](CCC(N)=O)C(=O)N[C@H](C(=O)N[C@@H](CC(C)C)C(=O)N[C@@H](CC(C)C)C(=O)N[C@@H](CCCCN)C(=O)N[C@@H](CCC(N)=O)C(=O)N[C@@H](CCC(=O)O)C(=O)N[C@@H](CCCNC(=N)N)C(=O)N[C@@H](CCC(N)=O)C(=O)N[C@@H](CCCCN)C(=O)N[C@@H](CCCCN)C(=O)NC(C)(C)C(=O)N[C@@H](CCCNC(=N)N)C(=O)N[C@@H](CCC(N)=O)C(=O)N[C@@H](CCCCN)C(=O)N[C@@H](C)C(=O)N[C@@H](CCC(=O)O)C(=O)N[C@@H](CCCCN)C(=O)N[C@@H](CC(N)=O)C(=O)N[C@@H](CCCCN)C(=O)N[C@@H](CCC(N)=O)C(=O)N[C@H](C(=O)N[C@@H](CC(C)C)C(=O)N[C@@H](C)C(=O)N[C@@H](CCC(N)=O)C(=O)N[C@H](C(N)=O)C(C)C)[C@@H](C)CC)[C@@H](C)CC)[C@@H](C)CC)C(C)C)C(C)C
# B2: peptide of SEQ ID NO: 116 (peptide)
# peptide: IVLSLDVPIKLK([AEEA-AEEA-γGlu-C18 diacid])QILLKQERQK[Aib]QREKAEKNKQILAQV-NH2
# modifications: N-terminus assumed
# SMILES: CC[C@H](C)[C@H](N)C(=O)N[C@H](C(=O)N[C@@H](CC(C)C)C(=O)N[C@@H](CO)C(=O)N[C@@H](CC(C)C)C(=O)N[C@@H](CC(=O)O)C(=O)N[C@H](C(=O)N1CCC[C@H]1C(=O)N[C@H](C(=O)N[C@@H](CCCCN)C(=O)N[C@@H](CC(C)C)C(=O)N[C@@H](CCCCNC(=O)COCCOCCNC(=O)COCCOCCNC(=O)CC[C@H](NC(=O)CCCCCCCCCCCCCCCCC(=O)O)C(=O)O)C(=O)N[C@@H](CCC(N)=O)C(=O)N[C@H](C(=O)N[C@@H](CC(C)C)C(=O)N[C@@H](CC(C)C)C(=O)N[C@@H](CCCCN)C(=O)N[C@@H](CCC(N)=O)C(=O)N[C@@H](CCC(=O)O)C(=O)N[C@@H](CCCNC(=N)N)C(=O)N[C@@H](CCC(N)=O)C(=O)N[C@@H](CCCCN)C(=O)NC(C)(C)C(=O)N[C@@H](CCC(N)=O)C(=O)N[C@@H](CCCNC(=N)N)C(=O)N[C@@H](CCC(=O)O)C(=O)N[C@@H](CCCCN)C(=O)N[C@@H](C)C(=O)N[C@@H](CCC(=O)O)C(=O)N[C@@H](CCCCN)C(=O)N[C@@H](CC(N)=O)C(=O)N[C@@H](CCCCN)C(=O)N[C@@H](CCC(N)=O)C(=O)N[C@H](C(=O)N[C@@H](CC(C)C)C(=O)N[C@@H](C)C(=O)N[C@@H](CCC(N)=O)C(=O)N[C@H](C(N)=O)C(C)C)[C@@H](C)CC)[C@@H](C)CC)[C@@H](C)CC)C(C)C)C(C)C
# B3: peptide of SEQ ID NO: 117 (peptide)
# peptide: IVLSLDVPIKLK([AEEA-AEEA-γGlu-C18 diacid])QILLKQERQK[Aib]QRQQAEKNKQILAQV-NH2
# modifications: N-terminus assumed
# SMILES: CC[C@H](C)[C@H](N)C(=O)N[C@H](C(=O)N[C@@H](CC(C)C)C(=O)N[C@@H](CO)C(=O)N[C@@H](CC(C)C)C(=O)N[C@@H](CC(=O)O)C(=O)N[C@H](C(=O)N1CCC[C@H]1C(=O)N[C@H](C(=O)N[C@@H](CCCCN)C(=O)N[C@@H](CC(C)C)C(=O)N[C@@H](CCCCNC(=O)COCCOCCNC(=O)COCCOCCNC(=O)CC[C@H](NC(=O)CCCCCCCCCCCCCCCCC(=O)O)C(=O)O)C(=O)N[C@@H](CCC(N)=O)C(=O)N[C@H](C(=O)N[C@@H](CC(C)C)C(=O)N[C@@H](CC(C)C)C(=O)N[C@@H](CCCCN)C(=O)N[C@@H](CCC(N)=O)C(=O)N[C@@H](CCC(=O)O)C(=O)N[C@@H](CCCNC(=N)N)C(=O)N[C@@H](CCC(N)=O)C(=O)N[C@@H](CCCCN)C(=O)NC(C)(C)C(=O)N[C@@H](CCC(N)=O)C(=O)N[C@@H](CCCNC(=N)N)C(=O)N[C@@H](CCC(N)=O)C(=O)N[C@@H](CCC(N)=O)C(=O)N[C@@H](C)C(=O)N[C@@H](CCC(=O)O)C(=O)N[C@@H](CCCCN)C(=O)N[C@@H](CC(N)=O)C(=O)N[C@@H](CCCCN)C(=O)N[C@@H](CCC(N)=O)C(=O)N[C@H](C(=O)N[C@@H](CC(C)C)C(=O)N[C@@H](C)C(=O)N[C@@H](CCC(N)=O)C(=O)N[C@H](C(N)=O)C(C)C)[C@@H](C)CC)[C@@H](C)CC)[C@@H](C)CC)C(C)C)C(C)C
# B4: peptide of SEQ ID NO: 118 (peptide)
# peptide: IVLSLD[dV]PIKLK([AEEA-AEEA-γGlu-C18 diacid])QILLKQERQK[Aib]QRQKAEKNKQILAQV-NH2
# modifications: N-terminus assumed
# SMILES: CC[C@H](C)[C@H](N)C(=O)N[C@H](C(=O)N[C@@H](CC(C)C)C(=O)N[C@@H](CO)C(=O)N[C@@H](CC(C)C)C(=O)N[C@@H](CC(=O)O)C(=O)N[C@@H](C(=O)N1CCC[C@H]1C(=O)N[C@H](C(=O)N[C@@H](CCCCN)C(=O)N[C@@H](CC(C)C)C(=O)N[C@@H](CCCCNC(=O)COCCOCCNC(=O)COCCOCCNC(=O)CC[C@H](NC(=O)CCCCCCCCCCCCCCCCC(=O)O)C(=O)O)C(=O)N[C@@H](CCC(N)=O)C(=O)N[C@H](C(=O)N[C@@H](CC(C)C)C(=O)N[C@@H](CC(C)C)C(=O)N[C@@H](CCCCN)C(=O)N[C@@H](CCC(N)=O)C(=O)N[C@@H](CCC(=O)O)C(=O)N[C@@H](CCCNC(=N)N)C(=O)N[C@@H](CCC(N)=O)C(=O)N[C@@H](CCCCN)C(=O)NC(C)(C)C(=O)N[C@@H](CCC(N)=O)C(=O)N[C@@H](CCCNC(=N)N)C(=O)N[C@@H](CCC(N)=O)C(=O)N[C@@H](CCCCN)C(=O)N[C@@H](C)C(=O)N[C@@H](CCC(=O)O)C(=O)N[C@@H](CCCCN)C(=O)N[C@@H](CC(N)=O)C(=O)N[C@@H](CCCCN)C(=O)N[C@@H](CCC(N)=O)C(=O)N[C@H](C(=O)N[C@@H](CC(C)C)C(=O)N[C@@H](C)C(=O)N[C@@H](CCC(N)=O)C(=O)N[C@H](C(N)=O)C(C)C)[C@@H](C)CC)[C@@H](C)CC)[C@@H](C)CC)C(C)C)C(C)C
# B5: peptide of SEQ ID NO: 110 (peptide)
# peptide: IVLSLDVPIKLK([AEEA-AEEA-γGlu-C18 diacid])QILLKQERQK[Aib]QRQQAETNKQILAQV-NH2
# modifications: N-terminus assumed
# SMILES: CC[C@H](C)[C@H](N)C(=O)N[C@H](C(=O)N[C@@H](CC(C)C)C(=O)N[C@@H](CO)C(=O)N[C@@H](CC(C)C)C(=O)N[C@@H](CC(=O)O)C(=O)N[C@H](C(=O)N1CCC[C@H]1C(=O)N[C@H](C(=O)N[C@@H](CCCCN)C(=O)N[C@@H](CC(C)C)C(=O)N[C@@H](CCCCNC(=O)COCCOCCNC(=O)COCCOCCNC(=O)CC[C@H](NC(=O)CCCCCCCCCCCCCCCCC(=O)O)C(=O)O)C(=O)N[C@@H](CCC(N)=O)C(=O)N[C@H](C(=O)N[C@@H](CC(C)C)C(=O)N[C@@H](CC(C)C)C(=O)N[C@@H](CCCCN)C(=O)N[C@@H](CCC(N)=O)C(=O)N[C@@H](CCC(=O)O)C(=O)N[C@@H](CCCNC(=N)N)C(=O)N[C@@H](CCC(N)=O)C(=O)N[C@@H](CCCCN)C(=O)NC(C)(C)C(=O)N[C@@H](CCC(N)=O)C(=O)N[C@@H](CCCNC(=N)N)C(=O)N[C@@H](CCC(N)=O)C(=O)N[C@@H](CCC(N)=O)C(=O)N[C@@H](C)C(=O)N[C@@H](CCC(=O)O)C(=O)N[C@H](C(=O)N[C@@H](CC(N)=O)C(=O)N[C@@H](CCCCN)C(=O)N[C@@H](CCC(N)=O)C(=O)N[C@H](C(=O)N[C@@H](CC(C)C)C(=O)N[C@@H](C)C(=O)N[C@@H](CCC(N)=O)C(=O)N[C@H](C(N)=O)C(C)C)[C@@H](C)CC)[C@@H](C)O)[C@@H](C)CC)[C@@H](C)CC)C(C)C)C(C)C
# B6: peptide of SEQ ID NO: 109 (peptide)
# peptide: IVLSLDVPIKLK([AEEA-AEEA-γGlu-C18 diacid])QILLKQERQK[Aib]QREKAETNKQILAQV-NH2
# modifications: N-terminus assumed
# SMILES: CC[C@H](C)[C@H](N)C(=O)N[C@H](C(=O)N[C@@H](CC(C)C)C(=O)N[C@@H](CO)C(=O)N[C@@H](CC(C)C)C(=O)N[C@@H](CC(=O)O)C(=O)N[C@H](C(=O)N1CCC[C@H]1C(=O)N[C@H](C(=O)N[C@@H](CCCCN)C(=O)N[C@@H](CC(C)C)C(=O)N[C@@H](CCCCNC(=O)COCCOCCNC(=O)COCCOCCNC(=O)CC[C@H](NC(=O)CCCCCCCCCCCCCCCCC(=O)O)C(=O)O)C(=O)N[C@@H](CCC(N)=O)C(=O)N[C@H](C(=O)N[C@@H](CC(C)C)C(=O)N[C@@H](CC(C)C)C(=O)N[C@@H](CCCCN)C(=O)N[C@@H](CCC(N)=O)C(=O)N[C@@H](CCC(=O)O)C(=O)N[C@@H](CCCNC(=N)N)C(=O)N[C@@H](CCC(N)=O)C(=O)N[C@@H](CCCCN)C(=O)NC(C)(C)C(=O)N[C@@H](CCC(N)=O)C(=O)N[C@@H](CCCNC(=N)N)C(=O)N[C@@H](CCC(=O)O)C(=O)N[C@@H](CCCCN)C(=O)N[C@@H](C)C(=O)N[C@@H](CCC(=O)O)C(=O)N[C@H](C(=O)N[C@@H](CC(N)=O)C(=O)N[C@@H](CCCCN)C(=O)N[C@@H](CCC(N)=O)C(=O)N[C@H](C(=O)N[C@@H](CC(C)C)C(=O)N[C@@H](C)C(=O)N[C@@H](CCC(N)=O)C(=O)N[C@H](C(N)=O)C(C)C)[C@@H](C)CC)[C@@H](C)O)[C@@H](C)CC)[C@@H](C)CC)C(C)C)C(C)C
# Molecular target: T1, CRF1R receptor (anti-target)
# Experiment: cell-based or functional assay
"EC50 [nM] 0% HSA (cAMP, HTRF)",Emax (%) (100% = Sauvagine at 100 nM),Binder
> 100 nM,0.4%,B1
> 100 nM,0.8%,B2
> 100 nM,-6%,B3
> 100 nM,1.5%,B4
> 100 nM,5.4%,B5
> 100 nM,1.1%,B6
